The source of these data is PMC10823254 (Proceedings of the National Academy of Sciences of the …, 2024).

Usually Kd stands for a measure of binding affinity in units of concentration. High values mean weaker binding, low ones tighter binding.

This assay has as its target T1, PilO-C (H. pylori).
T1 chain: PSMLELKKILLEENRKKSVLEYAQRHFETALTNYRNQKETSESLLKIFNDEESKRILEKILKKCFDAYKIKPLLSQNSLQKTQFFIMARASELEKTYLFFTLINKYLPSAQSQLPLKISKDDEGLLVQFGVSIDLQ
The experiment in a line: SPR.

B1: PilN-C (domain or fragment)
chain: HNAIKSTQDNASSLTIQERLYRHEISRLQVKTDETLKLIKEAKKRLNYNDDIRDVLQGLLNIVPDSITINSIEIDQQSVVVSGKTPSKEAFYFLFQNKLNPMFDYSRAEFFPLSDGWFNFVSTNFSNSLLIKNPESIK
In turn, B1 had a Kd of 3.1 ± 1 µM.
